Assay results published in US20160272683A1 (Novo Nordisk, published 2016).
Values belong to the binder of their own block, whether it stands above or below them. Numbered stars: 1 amine (or outer) side, 2 acyl side, 3 side chain; on linkers, the order of the positions; unused ones are H or OH. * marks the point of attachment. C20 diacid = O=C(O)CCCCCCCCCCCCCCCCCCC(=O)*; γGlu = O=C(O)[C@H](CCC(=O)[*:2])N[*:1]

Columns and labels:
[1] = target: T1, human calcitonin receptor (human, UniProt P30988 25-474); test: cell-based or functional assay
T1 sequence (looked up): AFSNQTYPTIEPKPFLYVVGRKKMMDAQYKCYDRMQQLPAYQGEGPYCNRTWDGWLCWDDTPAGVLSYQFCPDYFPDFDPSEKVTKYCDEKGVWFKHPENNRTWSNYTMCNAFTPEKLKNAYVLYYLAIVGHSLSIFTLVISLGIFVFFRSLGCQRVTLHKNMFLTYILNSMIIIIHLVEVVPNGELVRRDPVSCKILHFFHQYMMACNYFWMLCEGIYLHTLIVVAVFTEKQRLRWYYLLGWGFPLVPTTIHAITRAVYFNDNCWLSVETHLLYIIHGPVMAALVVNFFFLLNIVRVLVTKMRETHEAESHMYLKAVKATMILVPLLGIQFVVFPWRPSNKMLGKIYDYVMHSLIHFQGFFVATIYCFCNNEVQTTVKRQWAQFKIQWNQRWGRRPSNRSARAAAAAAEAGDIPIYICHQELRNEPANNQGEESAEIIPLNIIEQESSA

[2] = target: T2, human amylin 3(a) receptor (human calcitonin receptor co-expressed with RAMP-3) (human, UniProt P30988 25-474; O60896 24-148, limits assumed); test: cell-based or functional assay
T2 sequence (looked up) 1: T1 sequence (looked up)
T2 sequence (looked up) 2: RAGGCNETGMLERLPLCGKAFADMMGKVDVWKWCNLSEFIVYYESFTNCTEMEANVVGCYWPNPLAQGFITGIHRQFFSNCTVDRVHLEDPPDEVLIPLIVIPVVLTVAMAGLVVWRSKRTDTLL

hCTR funct. EC50 (pM) [1]: 45 pM
hAmylin-R funct. EC50 (pM) [2]: 54 pM
B1: [N-terminal(C20 diacid-gGlu), des1, 4G, 9V, 15Q, 21Q, 23aQ, 23bT, 23cY, 30S, 31Q, 32T, 33Y]mimylin (peptide)
peptide: {C20 diacid-γGlu}-ASGLSTAVLGRLSQELHELQTLQTYPRTETGSQTY-NH2
SMILES: CC(C)C[C@H](NC(=O)CNC(=O)[C@H](CO)NC(=O)[C@H](C)NC(=O)CC[C@H](NC(=O)CCCCCCCCCCCCCCCCCCC(=O)O)C(=O)O)C(=O)N[C@@H](CO)C(=O)N[C@H](C(=O)N[C@@H](C)C(=O)N[C@H](C(=O)N[C@@H](CC(C)C)C(=O)NCC(=O)N[C@@H](CCCNC(=N)N)C(=O)N[C@@H](CC(C)C)C(=O)N[C@@H](CO)C(=O)N[C@@H](CCC(N)=O)C(=O)N[C@@H](CCC(=O)O)C(=O)N[C@@H](CC(C)C)C(=O)N[C@@H](Cc1c[nH]cn1)C(=O)N[C@@H](CCC(=O)O)C(=O)N[C@@H](CC(C)C)C(=O)N[C@@H](CCC(N)=O)C(=O)N[C@H](C(=O)N[C@@H](CC(C)C)C(=O)N[C@@H](CCC(N)=O)C(=O)N[C@H](C(=O)N[C@@H](Cc1ccc(O)cc1)C(=O)N1CCC[C@H]1C(=O)N[C@@H](CCCNC(=N)N)C(=O)N[C@H](C(=O)N[C@@H](CCC(=O)O)C(=O)N[C@H](C(=O)NCC(=O)N[C@@H](CO)C(=O)N[C@@H](CCC(N)=O)C(=O)N[C@H](C(=O)N[C@@H](Cc1ccc(O)cc1)C(N)=O)[C@@H](C)O)[C@@H](C)O)[C@@H](C)O)[C@@H](C)O)[C@@H](C)O)C(C)C)[C@@H](C)O

hCTR funct. EC50 (pM) [1]: 31 pM
hAmylin-R funct. EC50 (pM) [2]: 31 pM
B2: [N-terminal(C20 diacid-gGlu), des1, 2L, 4G, 9V, 15Q, 21Q, 23Y, 30S, 31Q, 32T, 33Y]mimylin (peptide)
peptide: {C20 diacid-γGlu}-LSGLSTAVLGRLSQELHELQTYPRTETGSQTY-NH2
SMILES: CC(C)C[C@H](NC(=O)CC[C@H](NC(=O)CCCCCCCCCCCCCCCCCCC(=O)O)C(=O)O)C(=O)N[C@@H](CO)C(=O)NCC(=O)N[C@@H](CC(C)C)C(=O)N[C@@H](CO)C(=O)N[C@H](C(=O)N[C@@H](C)C(=O)N[C@H](C(=O)N[C@@H](CC(C)C)C(=O)NCC(=O)N[C@@H](CCCNC(=N)N)C(=O)N[C@@H](CC(C)C)C(=O)N[C@@H](CO)C(=O)N[C@@H](CCC(N)=O)C(=O)N[C@@H](CCC(=O)O)C(=O)N[C@@H](CC(C)C)C(=O)N[C@@H](Cc1c[nH]cn1)C(=O)N[C@@H](CCC(=O)O)C(=O)N[C@@H](CC(C)C)C(=O)N[C@@H](CCC(N)=O)C(=O)N[C@H](C(=O)N[C@@H](Cc1ccc(O)cc1)C(=O)N1CCC[C@H]1C(=O)N[C@@H](CCCNC(=N)N)C(=O)N[C@H](C(=O)N[C@@H](CCC(=O)O)C(=O)N[C@H](C(=O)NCC(=O)N[C@@H](CO)C(=O)N[C@@H](CCC(N)=O)C(=O)N[C@H](C(=O)N[C@@H](Cc1ccc(O)cc1)C(N)=O)[C@@H](C)O)[C@@H](C)O)[C@@H](C)O)[C@@H](C)O)C(C)C)[C@@H](C)O

hCTR funct. EC50 (pM) [1]: 25 pM
hAmylin-R funct. EC50 (pM) [2]: 25 pM
B3: [N-terminal(C20 diacid-gGlu), 2L, 4G, 8L, 9V, 15Q, 21Q, 23Y, 27G, 30S, 31G, 32T, 33Y]mimylin (peptide)
peptide: {C20 diacid-γGlu}-ELSGLSTLVLGRLSQELHELQTYPRTGTGSGTY-NH2
SMILES: CC(C)C[C@H](NC(=O)CNC(=O)[C@H](CO)NC(=O)[C@H](CC(C)C)NC(=O)[C@H](CCC(=O)O)NC(=O)CC[C@H](NC(=O)CCCCCCCCCCCCCCCCCCC(=O)O)C(=O)O)C(=O)N[C@@H](CO)C(=O)N[C@H](C(=O)N[C@@H](CC(C)C)C(=O)N[C@H](C(=O)N[C@@H](CC(C)C)C(=O)NCC(=O)N[C@@H](CCCNC(=N)N)C(=O)N[C@@H](CC(C)C)C(=O)N[C@@H](CO)C(=O)N[C@@H](CCC(N)=O)C(=O)N[C@@H](CCC(=O)O)C(=O)N[C@@H](CC(C)C)C(=O)N[C@@H](Cc1c[nH]cn1)C(=O)N[C@@H](CCC(=O)O)C(=O)N[C@@H](CC(C)C)C(=O)N[C@@H](CCC(N)=O)C(=O)N[C@H](C(=O)N[C@@H](Cc1ccc(O)cc1)C(=O)N1CCC[C@H]1C(=O)N[C@@H](CCCNC(=N)N)C(=O)N[C@H](C(=O)NCC(=O)N[C@H](C(=O)NCC(=O)N[C@@H](CO)C(=O)NCC(=O)N[C@H](C(=O)N[C@@H](Cc1ccc(O)cc1)C(N)=O)[C@@H](C)O)[C@@H](C)O)[C@@H](C)O)[C@@H](C)O)C(C)C)[C@@H](C)O

hCTR funct. EC50 (pM) [1]: 15 pM
hAmylin-R funct. EC50 (pM) [2]: 18 pM
B4: [N-terminal(C20 diacid-gGlu), des1, 4G, 9V, 12K, 15Q, 21Q, 23Y, 25P, 30S, 31G, 32T, 33Y]mimylin (peptide)
peptide: {C20 diacid-γGlu}-ASGLSTAVLGKLSQELHELQTYPPTETGSGTY-NH2
SMILES: CC(C)C[C@H](NC(=O)CNC(=O)[C@H](CO)NC(=O)[C@H](C)NC(=O)CC[C@H](NC(=O)CCCCCCCCCCCCCCCCCCC(=O)O)C(=O)O)C(=O)N[C@@H](CO)C(=O)N[C@H](C(=O)N[C@@H](C)C(=O)N[C@H](C(=O)N[C@@H](CC(C)C)C(=O)NCC(=O)N[C@@H](CCCCN)C(=O)N[C@@H](CC(C)C)C(=O)N[C@@H](CO)C(=O)N[C@@H](CCC(N)=O)C(=O)N[C@@H](CCC(=O)O)C(=O)N[C@@H](CC(C)C)C(=O)N[C@@H](Cc1c[nH]cn1)C(=O)N[C@@H](CCC(=O)O)C(=O)N[C@@H](CC(C)C)C(=O)N[C@@H](CCC(N)=O)C(=O)N[C@H](C(=O)N[C@@H](Cc1ccc(O)cc1)C(=O)N1CCC[C@H]1C(=O)N1CCC[C@H]1C(=O)N[C@H](C(=O)N[C@@H](CCC(=O)O)C(=O)N[C@H](C(=O)NCC(=O)N[C@@H](CO)C(=O)NCC(=O)N[C@H](C(=O)N[C@@H](Cc1ccc(O)cc1)C(N)=O)[C@@H](C)O)[C@@H](C)O)[C@@H](C)O)[C@@H](C)O)C(C)C)[C@@H](C)O

hCTR funct. EC50 (pM) [1]: 19 pM
hAmylin-R funct. EC50 (pM) [2]: 23 pM
B5: [N-terminal(C20 diacid-gGlu), des1, 4G, 9T, 15Q, 21Q, 23Y, 25P, 30S, 31G, 32T, 33Y]mimylin (peptide)
peptide: {C20 diacid-γGlu}-ASGLSTATLGRLSQELHELQTYPPTETGSGTY-NH2
SMILES: CC(C)C[C@H](NC(=O)CNC(=O)[C@H](CO)NC(=O)[C@H](C)NC(=O)CC[C@H](NC(=O)CCCCCCCCCCCCCCCCCCC(=O)O)C(=O)O)C(=O)N[C@@H](CO)C(=O)N[C@H](C(=O)N[C@@H](C)C(=O)N[C@H](C(=O)N[C@@H](CC(C)C)C(=O)NCC(=O)N[C@@H](CCCNC(=N)N)C(=O)N[C@@H](CC(C)C)C(=O)N[C@@H](CO)C(=O)N[C@@H](CCC(N)=O)C(=O)N[C@@H](CCC(=O)O)C(=O)N[C@@H](CC(C)C)C(=O)N[C@@H](Cc1c[nH]cn1)C(=O)N[C@@H](CCC(=O)O)C(=O)N[C@@H](CC(C)C)C(=O)N[C@@H](CCC(N)=O)C(=O)N[C@H](C(=O)N[C@@H](Cc1ccc(O)cc1)C(=O)N1CCC[C@H]1C(=O)N1CCC[C@H]1C(=O)N[C@H](C(=O)N[C@@H](CCC(=O)O)C(=O)N[C@H](C(=O)NCC(=O)N[C@@H](CO)C(=O)NCC(=O)N[C@H](C(=O)N[C@@H](Cc1ccc(O)cc1)C(N)=O)[C@@H](C)O)[C@@H](C)O)[C@@H](C)O)[C@@H](C)O)[C@@H](C)O)[C@@H](C)O
